Results on 21 molecules are retold here after patent US8895526B2, “Identification of RNAI targets and use of RNAI for rational therapy of chemotherapy-resistant leukemia and other cancers” (Cold Spring Harbor Laboratory, priority 2009, dated 2014).

Series [1] relates to immortalized murine embryonic fibroblasts (Mef). The series is described as follows: Pooled negative selection RNAi screening (deep sequencing). It is filed as cell-based. The following applies: deep sequencing reads, on dox compared to initial representation. Summed up: (§1)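 A pool of 1230 tet-regulated shRNAs (TRMPV-type) was retrovirally transduced at mostly single copy and ~1000-fold representation into tet-on MLL/AF9+Nras AML cells or immortalized murine embryonic fibroblasts, then cultured on or off doxycycline. shRNA-expressing cells were FACS-sorted, and shRNA representation was quantified by PCR and deep sequencing of genomic DNA, with depletion on dox compared against t0 and off dox.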

In series [2] the test system is tet-on competent MLL/AF9+Nras AML. The series is described as above. It is filed as cell-based, mouse. The following applies: deep sequencing reads, On Dox compared to T0. Summed up: as §1

B1: Lin28.2430: neutral control shRNA, SEQ ID NO: 201 (nucleic acid)
chain: TGCTGTTGACAGTGAGCGATGGCCTAGTTGTGTAAATATATAGTGAAGCCACAGATGTATATATTTACACAACTAGGCCACTGCCTACTGCCTCGGA
Consider B1, for which the “Fold depletion in Mef” value in series [1] worked out at 0.89 Fold. Besides, in series [2], the “Fold depletion in AML” value was 1.37 Fold.

B2: Lin28.2186: neutral control shRNA, SEQ ID NO: 199 (nucleic acid)
chain: TGCTGTTGACAGTGAGCGAATGGTTGATAGCTAAAGGAAATAGTGAAGCCACAGATGTATTTCCTTTAGCTATCAACCATCTGCCTACTGCCTCGGA
On to B2, for which the “Fold depletion in Mef” value in series [1] is on record as 1.55 Fold. The “Fold depletion in AML” value in series [2] was 1.43 Fold.

B3: Map2k1.1200: neutral control shRNA, SEQ ID NO: 203 (nucleic acid)
chain: TGCTGTTGACAGTGAGCGAGCCTCTCAGCTCATATGGAATTAGTGAAGCCACAGATGTAATTCCATATGAGCTGAGAGGCCTGCCTACTGCCTCGGA
Take B3: the “Fold depletion in Mef” value in series [1] turned out to be 1.24 Fold. Besides, the “Fold depletion in AML” value in series [2] is 2.26 Fold.

B4: Rpa3.561: shRNA, SEQ ID NO: 176 (also SEQ ID NO: 61) (nucleic acid)
chain: TGCTGTTGACAGTGAGCGCAAAAGTGATACTTCAATATATTAGTGAAGCCACAGATGTAATATATTGAAGTATCACTTTTATGCCTACTGCCTCGGA
B4: the “Fold depletion in Mef” value in series [1] was 10.63 Fold. Also, the “Fold depletion in AML” value in series [2] worked out at 8.81 Fold.

B5: Mcl1.1334: shRNA, SEQ ID NO: 139 (also SEQ ID NO: 43) (nucleic acid)
chain: TGCTGTTGACAGTGAGCGAAAGAGTCACTGTCTGAATGAATAGTGAAGCCACAGATGTATTCATTCAGACAGTGACTCTTCTGCCTACTGCCTCGGA
With B5, the “Fold depletion in Mef” value in series [1] is recorded as 3.00 Fold. In addition, in series [2], the “Fold depletion in AML” value came to 104.03 Fold.

B6: Luciferase.1309: neutral control shRNA, SEQ ID NO: 202 (nucleic acid)
chain: TGCTGTTGACAGTGAGCGCCCGCCTGAAGTCTCTGATTAATAGTGAAGCCACAGATGTATTAATCAGAGACTTCAGGCGGTTGCCTACTGCCTCGGA
Consider B6, for which the “Fold depletion in Mef” value in series [1] was determined as 0.52 Fold. Besides, in series [2], the “Fold depletion in AML” value is on record as 1.22 Fold.

B7: Mn1.5760: neutral control shRNA, SEQ ID NO: 207 (nucleic acid)
chain: TGCTGTTGACAGTGAGCGCTTGGTTTAGCAGGAAGAATAATAGTGAAGCCACAGATGTATTATTCTTCCTGCTAAACCAAATGCCTACTGCCTCGGA
Turning to B7, the “Fold depletion in Mef” value in series [1] came to 0.91 Fold. The “Fold depletion in AML” value in series [2] is on record as 0.38 Fold.

B8: Pcna.566: shRNA, SEQ ID NO: 160 (nucleic acid)
chain: TGCTGTTGACAGTGAGCGATCGGGTGAATTTGCACGTATATAGTGAAGCCACAGATGTATATACGTGCAAATTCACCCGACTGCCTACTGCCTCGGA
Turning to B8, the “Fold depletion in Mef” value in series [1] is reported as 6.15 Fold. Also, the “Fold depletion in AML” value in series [2] is 9.89 Fold.

B9: Map2k1.2337: neutral control shRNA, SEQ ID NO: 204 (nucleic acid)
chain: TGCTGTTGACAGTGAGCGCCAAGATGTTTATCAAATCTAATAGTGAAGCCACAGATGTATTAGATTTGATAAACATCTTGATGCCTACTGCCTCGGA
In the case of B9, the “Fold depletion in Mef” value in series [1] stood at 0.68 Fold. In addition, the “Fold depletion in AML” value in series [2] is recorded as 0.24 Fold.

B10: Mn1.1403: neutral control shRNA, SEQ ID NO: 205 (nucleic acid)
chain: TGCTGTTGACAGTGAGCGCAACGGTACCCTAGACAACCAATAGTGAAGCCACAGATGTATTGGTTGTCTAGGGTACCGTTATGCCTACTGCCTCGGA
As to B10, in series [1], the “Fold depletion in Mef” value is 0.77 Fold. The “Fold depletion in AML” value in series [2] came to 1.94 Fold.

B11: Kit.2021: neutral control shRNA, SEQ ID NO: 195 (nucleic acid)
chain: TGCTGTTGACAGTGAGCGACACCCTGGTCATTACAGAATATAGTGAAGCCACAGATGTATATTCTGTAATGACCAGGGTGGTGCCTACTGCCTCGGA
With B11, the “Fold depletion in Mef” value in series [1] came to 1.61 Fold. For the same molecule, the “Fold depletion in AML” value in series [2] came out at 1.92 Fold.

B12: Mn1.2545: neutral control shRNA, SEQ ID NO: 206 (nucleic acid)
chain: TGCTGTTGACAGTGAGCGCCAGCGCGGTTGCAGCCGGTAATAGTGAAGCCACAGATGTATTACCGGCTGCAACCGCGCTGTTGCCTACTGCCTCGGA
B12: the “Fold depletion in Mef” value in series [1] is given as 0.29 Fold. The “Fold depletion in AML” value in series [2] came out at 0.81 Fold.

B13: Myc.2105: shRNA, SEQ ID NO: 148 (nucleic acid)
chain: TGCTGTTGACAGTGAGCGCCTGCCTCAAACTTAAATAGTATAGTGAAGCCACAGATGTATACTATTTAAGTTTGAGGCAGTTGCCTACTGCCTCGGA
B13: the “Fold depletion in Mef” value in series [1] came to 11.70 Fold. The “Fold depletion in AML” value in series [2] is on record as 9.19 Fold.

B14: Pcna.1186: shRNA, SEQ ID NO: 159 (nucleic acid)
chain: TGCTGTTGACAGTGAGCGAATCAATGATCTTGACGCTAAATAGTGAAGCCACAGATGTATTTAGCGTCAAGATCATTGATGTGCCTACTGCCTCGGA
Take B14: the “Fold depletion in Mef” value in series [1] was determined as 11.42 Fold. The “Fold depletion in AML” value in series [2] stood at 51.94 Fold.

B15: Myc.1888: shRNA, SEQ ID NO: 146 (nucleic acid)
chain: TGCTGTTGACAGTGAGCGAGAAACGACGAGAACAGTTGAATAGTGAAGCCACAGATGTATTCAACTGTTCTCGTCGTTTCCTGCCTACTGCCTCGGA
B15: the “Fold depletion in Mef” value in series [1] amounted to 3.83 Fold. Moreover, the “Fold depletion in AML” value in series [2] was found to be 8.48 Fold.

B16: Kit.4813: neutral control shRNA, SEQ ID NO: 197 (nucleic acid)
chain: TGCTGTTGACAGTGAGCGATTGGATATTCTTGAAAGTTTATAGTGAAGCCACAGATGTATAAACTTTCAAGAATATCCAAGTGCCTACTGCCTCGGA
As for B16, the “Fold depletion in Mef” value in series [1] is 0.84 Fold. The “Fold depletion in AML” value in series [2] came to 0.81 Fold.

B17: Kit.221: neutral control shRNA, SEQ ID NO: 196 (nucleic acid)
chain: TGCTGTTGACAGTGAGCGCCAGATGGACTTTCAAGACCTATAGTGAAGCCACAGATGTATAGGTCTTGAAAGTCCATCTGATGCCTACTGCCTCGGA
Consider B17, for which, in series [1], the “Fold depletion in Mef” value was found to be 0.69 Fold. The “Fold depletion in AML” value in series [2] is 1.19 Fold.

B18: Lin28.2180: neutral control shRNA, SEQ ID NO: 198 (nucleic acid)
chain: TGCTGTTGACAGTGAGCGCAGCGTGATGGTTGATAGCTAATAGTGAAGCCACAGATGTATTAGCTATCAACCATCACGCTATGCCTACTGCCTCGGA
For the molecule B18, the “Fold depletion in Mef” value in series [1] was 0.80 Fold. The “Fold depletion in AML” value in series [2] turned out to be 1.15 Fold.

B19: Lin28.2270: neutral control shRNA, SEQ ID NO: 200 (nucleic acid)
chain: TGCTGTTGACAGTGAGCGCAACGGGACAAATGCAATAGAATAGTGAAGCCACAGATGTATTCTATTGCATTTGTCCCGTTTTGCCTACTGCCTCGGA
In the case of B19, the “Fold depletion in Mef” value in series [1] is reported as 1.10 Fold. The “Fold depletion in AML” value in series [2] was determined as 0.22 Fold.

B20: Myc.1891: shRNA, SEQ ID NO: 147 (nucleic acid)
chain: TGCTGTTGACAGTGAGCGCACGACGAGAACAGTTGAAACATAGTGAAGCCACAGATGTATGTTTCAACTGTTCTCGTCGTTTGCCTACTGCCTCGGA
Consider B20, for which the “Fold depletion in Mef” value in series [1] was determined as 4.62 Fold. The “Fold depletion in AML” value in series [2] is listed as 9.05 Fold.

B21: Rpa1.1620: shRNA, SEQ ID NO: 175 (also SEQ ID NO: 57) (nucleic acid)
chain: TGCTGTTGACAGTGAGCGCCCGCATGATCTTATCGGCAAATAGTGAAGCCACAGATGTATTTGCCGATAAGATCATGCGGTTGCCTACTGCCTCGGA
For the molecule B21, the “Fold depletion in Mef” value in series [1] came to 10.23 Fold. The “Fold depletion in AML” value in series [2] is on record as 2,891.47 Fold.
